Experimental data from US20220227882A1 (TRUSTEES OF TUFTS COLLEGE, published 2022).

Assays:
K458A = target: T1, K458A (Homo sapiens, UniProt P78325); test: high-throughput flow cytometry, HEK293 cells with mutant ADAM8, high stringency; range in parentheses; closed box
T1 construct: expressed on HEK293 cells; also called human ADAM8 point mutant K458A
T1 sequence (ADAM8, looked up): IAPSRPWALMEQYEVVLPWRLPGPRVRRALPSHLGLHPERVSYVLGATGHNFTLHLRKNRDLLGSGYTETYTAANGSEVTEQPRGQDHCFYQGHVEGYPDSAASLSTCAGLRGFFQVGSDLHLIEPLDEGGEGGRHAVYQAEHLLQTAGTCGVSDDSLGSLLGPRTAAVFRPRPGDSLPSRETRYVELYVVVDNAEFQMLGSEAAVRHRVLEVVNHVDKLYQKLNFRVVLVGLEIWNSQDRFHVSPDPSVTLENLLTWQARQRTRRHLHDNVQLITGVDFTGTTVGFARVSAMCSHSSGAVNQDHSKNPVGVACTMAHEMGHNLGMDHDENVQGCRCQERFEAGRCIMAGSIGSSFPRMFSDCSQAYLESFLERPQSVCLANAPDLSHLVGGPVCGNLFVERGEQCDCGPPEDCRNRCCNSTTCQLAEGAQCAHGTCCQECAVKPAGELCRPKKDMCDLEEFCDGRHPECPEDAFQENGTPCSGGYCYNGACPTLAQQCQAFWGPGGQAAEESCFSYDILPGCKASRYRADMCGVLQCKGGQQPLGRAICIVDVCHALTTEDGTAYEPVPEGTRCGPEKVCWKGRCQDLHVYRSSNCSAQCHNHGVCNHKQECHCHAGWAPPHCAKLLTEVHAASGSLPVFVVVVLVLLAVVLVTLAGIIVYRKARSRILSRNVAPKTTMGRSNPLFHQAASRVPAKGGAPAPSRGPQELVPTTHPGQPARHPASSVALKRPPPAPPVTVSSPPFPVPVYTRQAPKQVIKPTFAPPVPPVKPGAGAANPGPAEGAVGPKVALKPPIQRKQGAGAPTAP
Procedure: (§1) A variety of experimental parameters were optimized for high-throughput flow cytometry including blocking buffer, and primary and secondary antibody concentrations, to identify the optimal conditions for screening. Through these studies ADP2 and ADP13 were determined to be high affinity binding antibodies.
(§2) Thus, for these studies antigen-binding fragments (Fabs) of ADP2 and ADP13, which bind with lower affinity than the full antibody, were generated. In addition, higher binding stringency conditions were tested, such as increased pH, salinity, and temperature, and/or increased washing, to weaken binding sufficiently to allow identification of critical binding residues in flow cytometry. The final experimental flow cytometry conditions were: primary antibody incubation with ADP2 Fab (0.50 μg/ml), ADP13 Fab (5.00 μg/ml) and Control Ab (0.16 μg/ml) for 60 minutes in flow cytometry buffer containing 10% goat serum in PBS (Ca²⁺ and Mg²⁺ free). […] Samples were washed three times after primary antibody incubation and twice after secondary antibody incubation with PBS (Ca²⁺ and Mg′ free). Next, HEK293 cells expressing WT or mutated ADAM8 proteins or EV DNA were incubated with ADP2 or ADP13 Fabs or Control Ab at their optimal concentrations. Fab binding was detected using Alexa Fluor 488-conjugated secondary antibodies and mean cellular fluorescence determined using the Intellicyt iQue flow cytometry platform. […] This counter-screen strategy facilitates the exclusion of mutants that are locally misfolded or that have an expression defect. Binding of each test Fab to each mutant clone in the alanine scanning library was determined, in duplicate, by high-throughput flow cytometry.

R482A = target: T2, R482A (Homo sapiens, UniProt P78325); test: as above
T2 construct: expressed on HEK293 cells; also called human ADAM8 point mutant R482A
T2 sequence (ADAM8, looked up): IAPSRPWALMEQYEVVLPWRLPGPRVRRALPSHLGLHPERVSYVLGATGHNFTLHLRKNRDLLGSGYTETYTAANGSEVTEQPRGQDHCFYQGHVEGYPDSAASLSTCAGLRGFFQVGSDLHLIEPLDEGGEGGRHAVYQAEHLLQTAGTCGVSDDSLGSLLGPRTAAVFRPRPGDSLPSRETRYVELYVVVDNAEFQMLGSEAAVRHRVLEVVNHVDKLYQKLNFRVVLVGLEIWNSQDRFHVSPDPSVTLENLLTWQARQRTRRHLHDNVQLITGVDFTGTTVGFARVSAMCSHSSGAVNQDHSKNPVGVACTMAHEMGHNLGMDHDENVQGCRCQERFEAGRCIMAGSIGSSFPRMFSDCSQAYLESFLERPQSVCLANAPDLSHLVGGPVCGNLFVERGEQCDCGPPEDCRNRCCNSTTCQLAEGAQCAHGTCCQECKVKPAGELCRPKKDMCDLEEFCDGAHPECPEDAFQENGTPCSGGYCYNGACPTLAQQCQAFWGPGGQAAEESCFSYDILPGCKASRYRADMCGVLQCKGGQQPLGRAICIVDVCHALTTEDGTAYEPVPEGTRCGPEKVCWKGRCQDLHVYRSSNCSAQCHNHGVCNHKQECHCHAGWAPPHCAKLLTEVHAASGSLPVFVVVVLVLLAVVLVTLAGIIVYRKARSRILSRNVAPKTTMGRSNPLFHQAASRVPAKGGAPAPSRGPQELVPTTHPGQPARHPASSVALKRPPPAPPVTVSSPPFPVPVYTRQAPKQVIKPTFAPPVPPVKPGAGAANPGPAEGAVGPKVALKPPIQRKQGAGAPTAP
Procedure: as §1, §2

Binding Reactivity (% WT) (K458A): 13.5 % WT
Binding Reactivity (% WT) (R482A): 8.3 % WT
B1: ADP13 Fab (Fab, V domains shown)
VH: EVQLQQSGPEMVKPGTSVKISCKASGYTFTDYYINWVKQSHGKSLEWIGDISPNIGGATYNPKFKGKAILTVDKSARTAYMELRSLTSEDSAVYCCTRGGSSYPYFYAMDYWGQGTSVTVSS
VL: DIVMSQSPSSLAVSVGEKVTMSCKSSQSLLYSSNQKKYLAWYQQKPGQSPKLLIYWASTRESGVPDRFTGSGSGTDFTLTISSVKAEDLAVYYCQQFYSYPYTFGGGTKLEINR
